To fix the notation:
B1: hu247.22.2-SMCC-DM1 (antibody, human IgG1, kappa, V domains shown)
VH: EVQLVQSGAEVVKPGASVKIPCKASGYTFTDYNMDWVRQSPGKSLEWIGDLNPNNGATIYNEKFQGKATLTVDTSSSTAYMELRSLTSEDTAVYYCARGNYYGNYYYLMDYWGQGTSVTVSS
VL: DIQMTQSPSSLSVSVGERVTITCRASENIYSTLAWYQQKPGKSPKLLVYAATNLADGVPSRFSGSGSGTEYSLKINSLQPDDFGSYYCQHFWGTPYTFGGGTKLEIKR
modifications: DM1 linked through SMCC, average of 3-4 DM1 molecules per antibody; sites (heavy or light chain) not stated
B2: hucMet22Gv2.2 (antibody, V domains shown)
VH: QVQLVQSGAEVKKPGASVKVSCKASGYTFTDYNMDWVRQAPGQRLEWIGDLNPNNGATIYNQKFKGRATLTVDMSASTAYMELSSLRSEDTAVYYCARGNYYGNYYYLMDYWGQGTSVTVSS
VL: DIQMTQSPSSLSASVGDRVTITCRASENIYSTLAWYQQKPGKAPKLLVYAATNLADGVPSRFSGSGSGTDYTLTISSLQPEDFATYYCQHFWGTPYTFGQGTKVEIKR
B3: hu247.22.2 (antibody, human IgG1, kappa, V domains shown)
VH: B1 VH
VL: B1 VL
B4: hu247.22.2-SPDB-DM4 (antibody, human IgG1, kappa, V domains shown)
VH: B1 VH
VL: B1 VL
modifications: DM4 linked through SPDB; number and sites not stated for this conjugate
B5: hucMet22Gv2.2-sSPDB-DM4 (antibody, human IgG1, kappa, V domains shown)
VH: B2 VH
VL: B2 VL
modifications: lysines linked to sSPDB-DM4, on average 3-4 DM4 per antibody
B6: hucMet22Gv2.2-DGN549 (antibody, human IgG1, kappa, V domains shown)
VH: B2 VH
VL: B2 VL
modifications: DGN549 conjugate; linkage site not stated for this antibody
B7: hucMet27v1.2 (antibody, human IgG1, kappa, V domains shown)
VH: EVQLVESGGGLVQPGGSLRLSCAASGFTFSSYDMSWVRQTPGKGLELVATINSNGVSIYYPDSVKGRFTISRDIAKNTLYLQMSSLRAEDTAMYYCAREEITTEMDYWGQGTSVTVSS
VL: DIVLTQSPASLAVSPGQRATISCRASESVDSYGNSFIHWYQQKPGQPPKLLIYRASNLESGIPARFSGSGSRTDFTLTINPVEANDVATYYCQQSNEEPLTFGGGTKLELKR
B8: hucMet27v1.2-sSPDB-DM4 (antibody, human IgG1, kappa, V domains shown)
VH: B7 VH
VL: B7 VL
modifications: lysines linked to sSPDB-DM4, on average 3-4 DM4 per antibody
B9: hucMet27Gv1.2-sSPDB-DM4 (antibody, human IgG1, kappa, V domains shown)
VH: B7 VH with T40A, T78S, S84N, M93V, S113L
VL: EIVLTQSPATLSLSPGERATLSCRASESVDSYGNSFIHWYQQKPGQAPRLLIYRASNLESGIPARFSGSGSGTDFTLTISSLEPEDFAVYYCQQSNEEPLTFGQGTKVELKR
modifications: sSPDB-DM4 conjugate; preparation of this one not described
B10: hucMet27Gv1.2 (antibody, human IgG1, kappa, V domains shown)
VH: B7 VH with T40A, T78S, S84N, M93V, S113L
VL: B9 VL
B11: hucMet27Gv1.2-DGN549 (antibody, human IgG1, kappa, V domains shown)
VH: B7 VH with T40A, T78S, S84N, M93V, S113L
VL: B9 VL
modifications: DGN549 conjugate; linkage site not stated for this antibody
B12: hucMet27v1.2-DGN549 (antibody, human IgG1, kappa, V domains shown)
VH: B7 VH
VL: B7 VL
modifications: lysine-linked DGN549
B13: hucMET27Gv2.1 (antibody, human IgG1, kappa, V domains shown)
VH: B7 VH with T40A, L47W, A49S, I74N, T78S, S84N, M93V, S113L
VL: B9 VL with G72R
B14: hucMET27Gv2.2 (antibody, human IgG1, kappa, V domains shown)
VH: B7 VH with T40A, T78S, S84N, M93V, S113L
VL: B9 VL with G72R
B15: hucMET27Gv1.1 (antibody, human IgG1, kappa, V domains shown)
VH: B7 VH with T40A, L47W, A49S, I74N, T78S, S84N, M93V, S113L
VL: B9 VL

Where a chain is given by its changes, count along the chain named.

As usually defined, the EC50 (read off the curve) is the concentration that produces a half-maximal response. High values mean lower potency in that assay, low ones higher potency in that assay.

The target of one experiment is human cMET (MET, c-Met, HGF receptor) on cells (human) (UniProt P08581). Put plainly: cell-based or functional assay.
human cMET (MET, c-Met, HGF receptor) on cells (human), sequence (P08581 25-1390): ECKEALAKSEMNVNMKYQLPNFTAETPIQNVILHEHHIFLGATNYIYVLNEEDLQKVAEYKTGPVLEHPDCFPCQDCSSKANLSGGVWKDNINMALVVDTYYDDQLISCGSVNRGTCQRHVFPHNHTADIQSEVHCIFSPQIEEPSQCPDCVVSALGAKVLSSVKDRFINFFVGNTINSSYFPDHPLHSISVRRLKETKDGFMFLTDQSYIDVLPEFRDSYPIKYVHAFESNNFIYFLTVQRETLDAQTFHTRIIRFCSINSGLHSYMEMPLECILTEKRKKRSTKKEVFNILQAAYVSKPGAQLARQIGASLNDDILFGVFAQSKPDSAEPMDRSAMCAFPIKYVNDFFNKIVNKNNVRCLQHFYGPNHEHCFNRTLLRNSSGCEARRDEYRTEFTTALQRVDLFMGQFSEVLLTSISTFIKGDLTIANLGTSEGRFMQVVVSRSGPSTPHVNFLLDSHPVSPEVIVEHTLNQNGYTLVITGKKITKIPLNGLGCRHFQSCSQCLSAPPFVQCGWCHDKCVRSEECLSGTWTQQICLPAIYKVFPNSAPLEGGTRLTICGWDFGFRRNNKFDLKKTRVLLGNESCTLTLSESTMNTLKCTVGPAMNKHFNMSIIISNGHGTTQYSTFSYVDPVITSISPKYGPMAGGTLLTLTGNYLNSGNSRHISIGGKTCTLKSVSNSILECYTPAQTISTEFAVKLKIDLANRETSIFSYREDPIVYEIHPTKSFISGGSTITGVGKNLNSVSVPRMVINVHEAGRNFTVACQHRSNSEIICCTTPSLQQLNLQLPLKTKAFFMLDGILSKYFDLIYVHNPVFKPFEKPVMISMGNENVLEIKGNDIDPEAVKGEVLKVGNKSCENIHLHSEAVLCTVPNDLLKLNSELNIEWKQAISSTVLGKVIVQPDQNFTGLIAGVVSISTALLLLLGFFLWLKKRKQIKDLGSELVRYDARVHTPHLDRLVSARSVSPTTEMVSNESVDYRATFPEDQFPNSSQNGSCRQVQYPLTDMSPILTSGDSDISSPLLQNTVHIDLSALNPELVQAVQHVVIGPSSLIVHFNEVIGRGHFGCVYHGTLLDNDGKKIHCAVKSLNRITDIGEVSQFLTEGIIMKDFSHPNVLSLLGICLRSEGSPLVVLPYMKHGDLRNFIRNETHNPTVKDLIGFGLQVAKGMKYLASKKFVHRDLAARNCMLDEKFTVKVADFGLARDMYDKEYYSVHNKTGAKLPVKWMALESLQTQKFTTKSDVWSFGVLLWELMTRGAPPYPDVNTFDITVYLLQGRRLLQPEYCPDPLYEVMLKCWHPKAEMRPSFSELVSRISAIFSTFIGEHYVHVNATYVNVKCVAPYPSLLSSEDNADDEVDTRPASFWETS
Turning to B1, the in vitro cytotoxicity in MET-expressing MKN45 cells, EC50 came to 0.07 nM.
For B2, the percent induction of NCI-H441 cell growth (WST-8), normalised to 100 ng/mL HGF was determined as 72%.

The next experiment shares this target. Put plainly: flow cytometry on MET-expressing BxPC3 cells, FITC anti-human IgG; 'affinity' (apparent). In general terms: In flow cytometry, cells or beads pass a laser one at a time.
Regarding B1, the Kd came to 0.08 nM.
Take B3: the Kd was found to be 0.09 nM.
As for B4, the Kd was 0.07 nM.

The next experiment shares this target. Put plainly: flow cytometry (FACS) on EBC-1 cells endogenously expressing human cMet, fluorescent secondary antibody.
In turn, B2 returned an EC50 (read off the curve) of 100 pM.
B5: the EC50 (read off the curve) was determined as 200 pM.
With B6, the EC50 (read off the curve) is 200 pM.
Same read-out and setting: then B7, with 300 pM; and B8, with 200 pM.
For B9, the EC50 (read off the curve) turned out to be 500 pM.
Same read-out and setting: the same measure for B10: 500 pM; for B11: 400 pM.
Molecule B12 gave an EC50 (read off the curve) of 400 pM.

For the next experiment the target is unchanged. As to the kind of experiment: flow cytometry (FACS), direct binding to NCI-H441 cells expressing human cMET.
In turn, B7 displayed an EC50 (read off the curve) of 400 pM.
B13 came in with an EC50 (read off the curve) of 200 pM.
In turn, B10 displayed an EC50 (read off the curve) of 200 pM.
Molecule B14 showed an EC50 (read off the curve) of 200 pM.
As to B15, the EC50 (read off the curve) came to 200 pM.

These data come from patent US20180230218A1.
